Molecular target: T1, EGFR protein (UniProt P00533 25-645)
T1 construct: EGFR; source: bought: R&D Systems (1095-ER)
Experiment: pull-down; Fc fusion protein and its partner incubated in lysis buffer overnight at 4 °C; Protein A/G magnetic beads; both orientations (N-EGFR-Fc with Ephrin A1; Ephrin A1-Fc with EGFR protein)
Settings: both partners purified

B1: Ephrin A1-Fc protein (Fc fusion, UniProt P20827 19-182, looked up)
chain: DRHTVFWNSSNPKFRNEDYTIHVQLNDYVDIICPHYEDHSVADAAMEQYILYLVEHEEYQLCQPQSKDQVRWQCNRPSAKHGPEKLSEKFQRFTPFTLGKEFKEGHSYYYISKPIHQHEDRCLRLKVTVSGKITHSPQAHDNPQEKRLAADDPEVRVLHSIGHS
notes: Ephrin A1; source: bought: R&D Systems (6417-A1)
B1: binds.

From paper PMC11876641, “Ephrin A1 functions as a ligand of EGFR to promote EMT and metastasis in gastric cancer” (The EMBO Journal, 2025)
